The values below come from the NTF2 design screens of Basanta et al. (2020).

The series is described as follows: protease stability score; higher = more stable; yeast display proteolysis, trypsin and chymotrypsin.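 Further: relative to predicted unfolded state with 0 unfolded-like and 1 meaning tenfold more protease.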
Sequence “SEQEHFDRLAFKLLLHSIHTGDWRLLTEEFDPNTLIIIGEKIHHGMEFVREHIEVLGADHVDIEIHIRHVRHQGNKADMDMQVDIDIDVNGRRIRIRSRRRYISLKVDGRWVTTSLEIK” displayed a protease stability score of 0.939.
The value for “SEQEKELQDALEILMHRWLTGDEDFLYEMMDPNVRFTINGQDFHGRDFFRQKWKELGLTRVEIDLKFVRLQGDKATVHGHINFNGRTTDVIMYIDKVNGVWITKTIEFR” was 2.17.
The sequence “SEQERKVREWTEEEIRWFLTGDEDIWSHFADPNARSVHHIGNKTIHTHGMEDVTRVIRELLQELGADHRTVHELEIQGDKSTVNLEIRIGDKTYEVHIIIIIINGKRKYHIVHFRVQ” gave a protease stability score of 0.982.
As for “SEQHEITEHIARIILEFLTTGDFTEFFKMLDPHVRITVGDKFNVGRHVFWHLWQELFDHIRIRHISLKHIHIVDGRLHLDTRVHGKVDGKETTLDQHIHIEIINGRITSVNLEYR”, the protease stability score is 2.12.
As to “SEQHKIAQEMAERILELWQTGDEDTFRYLADPHYRLHIIINGKHHDHHGREEWDKWYRELLDRIDHVRLIWRSVETQGDKLRVDGELVLIIDGKRIVEKVHLEFRVIDGVLRHETIKVR”, the protease stability score was determined as 1.48.
Sequence “SEQSKHVKDMFDTWVHSERTGDWRVAKELVDPNARIDINGREFHGMEEAERLAHEIFTRIDHKELRIDHVHFINGVFKVEGTVIFRQGDKQFTIETRIHLFVINGRLKELKVEFI” returned a protease stability score of 1.15.
The value for “SEQWEEAKRLTDLYLTTSHTGDEQLSREFMDPHARTIVDGVEVHGMEEWANRFMRFVKQLRVDFRIHDMDVQGEKVDVDIRIRFVFNGVEHRIESILIVHKINGRWLMKEQRII” was 1.34; that for “SERDEEAKHLSEEIIRLWRTGDWKTFVRMLDPNDRMEVDGQSFHGMEDVIKFLLDFWKHLRIEDIRFRDLKYQGDKASSHTEVDVRIGDKQTRLHTEVDVLVVNGKLKSHRIKIE” was 1.08.
“SERDELVEKLMESALDFWRTGNEDLMERLLDPHVRLDINGREHHGREVVIKAFREIWMLLGIDHIDIHHVDIQGEYVHLDVRVKVNGKDTRSRIELIVVDGKITELIIRLR” had a protease stability score of 2.51.
In turn, “SERDEVAHLAFEYLINTHQTGDWRLFKEYLDPNVRFHVGDKFFHGRESVSKFFEEEMHRLGFKHIEMEHFEQQGDYLTINLTVRVDGQEYKLIYFALKVDGRWILRSITFE” yielded a protease stability score of 1.38.
“SERDKFTEEVARLWYHLLYTGNEELLQHMMDPDVRVHINGRTVVGRHEATRLLHELSETFGINHIHIHDIKIQGDKSDDDTEIQAPGRRVRVHIHLEIINGRIKRIEFRIE” yielded a protease stability score of 1.68.
In turn, “SERDRHNEEMARHFIRLFLTGDWDDFQHLFDPNVRTHIDGRDYHGWRSTLEAVRTLEREIRIEEIRVEHVDTQGDFIHQDTKVDFNVNGQRVIRESKVHIYEVNGRIKEIEMHYH” showed a protease stability score of 0.486.
“SERDRIAKELKDILRSSRETGDERMMEELADPNVRFEINGVTIIGREEFYRWMSEWRLELEHSNDHDEREFDGQVNVDGTLVMRFTVNGQERREKVRITIHFLKVDGRWILHRIIIH” came in with a protease stability score of 2.03.
As for “SEREDEMNHSRHLIEDSWRTGDFHITVRLADPHMKVIVGDYEYHGREHLHEVARNADIYHRIHINDWRIIGNKVEIDTEIDGFFNGVPHRTRVEIILSKINGRWILRSIIFR”, the figure is 1.31; as for “SEREDITHEFIQKTIKAIHTGDFILLLRLLDPDMQFDIGDKEFIGRERLREFMEEWRVRVKHYEIEHVRLQGDKLETHTHEHREIWIGDKVVHERFDRKIEITKVDGQWAIKRVEII”, 0.284.
In turn, “SEREEDTEHHMRMLIKDHETGDWRSWKKLVDPHVKLEINGREHHGRELALHMFRRVDHIESTVRDRTIQGDKVHHDGHLIINVDGVNIIVRSEIILIKVDGQWRIEILIFR” came in with a protease stability score of 0.957.
The sequence “SEREEEARKMTRRIIHTFFTGNEDFWDHLVDPNARVVINGVTVHGWERFQELLVDFLKEMRTRHIELRHLDAYGDKAHTDGRVDGDVNGQRVLRIEHLRVDVINGKVHSVEIEFR” gave a protease stability score of 0.916.
With “SEREEEMKHLHKNLVHNLFTGDEDSHKKLADPNARSVFDGRDFIGMDWWSRYYRHVFERFKGLRLENHHIHFQGNYLHIEARSYIGDKEEIWHFDYFMFDGKVHEVRMEVTKR”, the protease stability score turned out to be 0.813.
In the case of “SEREEENRRAFHKFWEIIKTGDEELQDTFADPHVRLDVDGKEFHGREWIVRMLTELLRRFGVDHITFKHVEVQGDKLIIHHRDEVGDKKFELHVIVDKINGRWYERHVSMSER”, the protease stability score stood at 1.65.
The value for “SEREEHDEFIMKLSLELEKTGDEHTIERLADPNPRIILEQGDKRITRHGWEHWEELLRRLGIKHIEFHRHKAINGQVHVDGTLRFDGVTVRSELVLIMVDGVMKTIKVIIR” was 1.44; that for “SEREEHTEEVWRDWLQSILTGDEDDLKRLADPHVRLEINFDGRTLIYHGREIVARFWSELRIRHFTLRHLKMIGDKIQVKGETKLEQGDKKVDSSVDLDTDIINGVIKREFVVYR” was 0.892; that for “SEREEKIEHALRRLFEVILTGDERLANELLDPNVLLDVGDKKIHGREEVMRILHHWRIDKFEMHTHDIRLIGEKAHVDTISDRRVHVNGRTQDITERVHFVVLKVNGVWFIHSMHIH” was 1.59.
The value for “SEREELVRYAIELMEEVMRTGDERLIESMADPNTRVVVNGVELHGRNHLLRVWSEWRTRDMREREVHVYDGRIEMHGTSDITIGDKHVITDTRHIAEKVDGRWILRSVEFR” was 0.405; that for “SEREESFEKWVEMYERALQTGDEEHISRLMDPNARSNINGVELHGREQTLEWLRHVKENLGVERVDVRVNLHRYRVIGNYIESDQELILIYNGREFRFHFHFIARKINGRWVVDRLEIK” was 2.51; that for “SEREEYLEEMFHLFIHYLLTGDWELLINLMDPHARNEIHINGVIFLVHGRELVKEIWERFRKHIRIKHIHVEELRVQGDKAESHTWVHYTIDGRESRVFTRVEIRIIDGVVRRISVEIR” was 1.72.
As for “SEREEYSHRAVELLIHLLRTGDEDMISKLADPNTYLDWNGREEVGMEDWLRLLREMRIHDVIIHTIEIQGDKIHMDVIIDGEFDGRRTEMRVHLILLKVNGRWVLTEVKIH”, the figure is 1.03.
For the sequence “SEREHEALRWMELIIDLWITGDEEFTHKLADPHAKYEYGDKVIHGMEEFTRIMNEWRIKRVHLHEFRFIGNFSHSNMHRRGNIDGVDVDTEITVTVVIVNGRISSISIEVR”, the protease stability score is 0.751.
As for “SEREHEVQESLEILIKLWHTGDFRAISEYADPNVRSDVNGKEFHGRENVEEALERSMKDLGVKVVHSEHIEHLEIYGNKVIVHVRIDGEVDGKRFHSHFIMYTTKVDGQWRVHEIRVH”, the figure is 1.03; as for “SEREHLADRFVKELTTALQTGDEEKIREMFDPHMKLIINGVTFHGWEELEKIRKRVDHIEHVEVRIEDVRIINGVVEIKGELHVHERVGDKIIDRSNDQTYFVEKVNGRWILKQVELH”, 1.14; as for “SEREKESERLWRLSAEVMETGDESMSLKEFDPHYRVLFDGQDFHGREQWKEFLERFDHEALKRFHEKRDDRQGDKAIHEGDLDLVLNYGDKQLRTRRDVIFYITKVNGKWMIKIVEFV”, 0.084.
Consider “SEREKHSKELNEHMIQLFETGDEDLLIRMADPHVRVIQGDKEYHGRHWYEKIFHDFVKQAQNARFEIHDVKIQGEKLIIHGKMEWNGKRHEVEWYFDIVDGRIKEEEIRIR”, for which the protease stability score worked out at 0.943.
Take “SEREKHWRDWVENVVEYHTHLLETGDEEEWKRFFRRLADPHVRMIVGDKVTHGREDAMRLFDELIKLLGVNHVHFRRVEIIGNKVNIDVELRQGNKFINLELILIVIDGKLENVERRVH”: the protease stability score came out at 1.14.
Turning to “SEREKIAELAYRLLKRSSDTGDPHLMQWLMDPNTRIEQGEFEHHGRDAISFWIKRFDHNRHIDVKRIEVQGNKVIMEFDVELDVNGVEIHTELVLISLKVNGQWRMESIKIE”, the protease stability score was 0.575.
The sequence “SEREQTVRHWVELLIHLLITGDEETLVHLLDPHARADIDGVEMHGRKTTEFWLKLFPHIKIELRRVEIQGEKVHMDTTMIQGEKERSTRIHLDVINGRIKRHSYEIE” displayed a protease stability score of 0.262.
As for “SERHDHAEHVLRLWEHFWKTGDETNLSRLLDPSVRWVIGDKVYHGMETVSHNLSRHYLRADHVEESVHRLNFQGNKVEMDGRIILNVNGVQIDKRSHIELISFNGKIKELDLHIT”, the figure is 0.371; as for “SERHEESHERTRLLMHAHETGDFHTLQRLMDPDTRLLIIFNGREIHIHGMESAFKFFNEIRISHVTIHRVDIQGDKVNVDGEQEGQINGQRSRNRIHWDIDVIDGKIKRIIVEIR”, 0.993; as for “SERHEILRLITEIWDHLKHTGDEDSLADLFDPHARMIWNGRDIHGWSNLIEAFRKILEFLGIDRIHIENTEMRLQGDKSHNRTDLNVNGKHLDTRVHLDVVDGRIRVTEVRIH”, 1.06.
Sequence “SERHEKTKKVLDDFLEIRETGDEHTFNRLADPHTRVHIGDKYVHGMEDANKMLKQWEQEMGIDHIIIRHVEIRLFNGKVNHHLDEELIVNGQSLRVEVVLFIFKFDGRWVLEKLHINVH” came in with a protease stability score of 1.21.
Turning to “SERHELVVRIVRLWIRMIRTGNEELYMRLADPHVKLDVNGREMHGRERSTEMWSELRIRHLHTEHIEVAENRFVVHGRLVTEFNGKEHDVKVVIHVEIVDGRIKEEEYHIL”, the protease stability score was found to be 1.29.
The sequence “SERHKDMKRLIDEWRKSYETGDEDQLRRLLDPTTRVDFNGVEYHGRHEAVEIMSQIRVEHIDIRELHVQGNKAEVRVRMHGHFDGQEEEVEFIIYMKKVNGRWVVHQEEHR” came in with a protease stability score of 1.16.
Take “SERKQASEDAFRIYIETFKTGDERTMRENMDPDVRVHIGEFNHHGMEESAHLLHEYWKRFGFRIRHVHIEDVKNVGNKVILHTLSEIEINGREEHVDTELIILKIDGKWLVEEVRVK”: the protease stability score is 0.92.
As for “SERREFSNFTMQMTITVTLTGDFHTSHRFVDPHARWEQGDKEYHGREIFAKTLLDKSSELGVDHYDIKTIHIQGEKVTVHLRVEVNGVEFELILRAHKINGVWLMESVEVRER”, the figure is 0.971; as for “SERRERLEVLSEILLRAWETGDEQELVENADPHTKLEVHQGDKEKHFHGWELILKHIYQIKNVKIHIEHVHIQGDKIENHVKLNINGKRIEVEITVWVVDGVIKHMEVRIK”, 1.93; as for “SERSEFITRLTREMIHAFETGDWKWLSELLDPNTRYHFRQGDKEFDMHGREEMVKMLEKILRHFGIDHFHIEDVKLYGDKVIVHHRSLVNGKEVHVRIEWDIVDGRIKSFNLDYHEN”, 1.26.
With “SESDEMAVEMLLRWVENLITGDEHTSQELLDPHVRIIFYIGDKEVHYHGWENAVEFWEEVVRRYDYFHIKFEEITVQGEKVRSKTRLTVIINGQEERYDTKLNAIVVNGRFKSVTIQYD”, the protease stability score stood at 0.876.
Sequence “SESEDLLETLERVIRRVDETGDERDFHEMLDPDARIIIGDKIHIGREASELWFKRVDHIHHRHIHQIRVIGNKMHIDIEVDGKIGDWRFRTRVELVLVKVNGKWMVHHININ” displayed a protease stability score of 1.17.
The value for “SESEDQAHKFSEEWIKAFETGDEEHMNRLVDPNVRIEVGDKEHHGRHVYLEILKRLGANHVRIHIEDIEVQGEKLIIHGKIIITVGDKVIEIRTIIIVTKIDGRWRIKDIIFH” was 1.39.
